Measured values as given in patent US20230257458A1.

Legend:
IL-11 protein = IL-11 protein (UniProt P20809); assay: ELISA, purchased IL-11 antibody (Abcam, ab130083) on IL-11, positive control
IL-11-Fc protein = IL-11-Fc protein (UniProt P20809); assay: competition ELISA: IL-11R-His coated, IL-11-Fc co-incubated with a concentration gradient of the antibody, detection with HRP goat anti-IgG-Fc; blocked partner IL-11R-His
IL-11-Fc protein, sequence (P20809 22-199 limits assumed): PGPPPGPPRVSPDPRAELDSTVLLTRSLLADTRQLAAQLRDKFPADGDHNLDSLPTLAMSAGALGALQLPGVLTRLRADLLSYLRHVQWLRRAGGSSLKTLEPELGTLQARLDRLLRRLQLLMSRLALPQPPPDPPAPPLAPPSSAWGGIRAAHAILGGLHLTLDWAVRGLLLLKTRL

IL-11 protein, sequence (P20809 22-199 limits assumed): as above

OD(450 nm) value (IL-11 protein): 3.62
IC50 (read off the curve) (IL-11-Fc protein): 1 µg/mL
Substance: 6D9A1 (Abcam, ab130083) (antibody)
